In one test the target is T1, Human MAdCAM (human, UniProt Q13477 19-317, limits assumed).
T1 construct: also called huMAdCAM; human MAdCAM-1
T1 sequence (looked up): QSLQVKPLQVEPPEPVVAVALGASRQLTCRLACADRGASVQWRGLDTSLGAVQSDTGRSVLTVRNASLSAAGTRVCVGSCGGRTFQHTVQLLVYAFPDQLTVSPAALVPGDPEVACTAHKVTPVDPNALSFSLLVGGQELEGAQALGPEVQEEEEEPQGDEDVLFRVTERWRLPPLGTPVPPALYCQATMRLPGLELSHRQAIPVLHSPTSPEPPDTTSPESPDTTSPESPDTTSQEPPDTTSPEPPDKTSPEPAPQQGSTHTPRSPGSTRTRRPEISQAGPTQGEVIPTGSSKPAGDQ
Put plainly: BLI Octet, AHC capture. Background: In BLI a coated tip is dipped into the sample, and binding shifts an interference pattern.

The target in another test is T2, Insulin (UniProt P01308 25-54; P01308 90-110).
T2 construct: Polyreactivity antigen; mature insulin has A and B chains; also called human insulin
Put plainly: ELISA on insulin-coated plate. (In an ELISA, binding on a coated surface is turned into a signal by an enzyme label.)

The results in this text go back to patent US20240132591A1 (PANDION OPERATIONS, published 2024).

As a reminder, the Kd is the constant that tells how readily two partners part at equilibrium. A lower Kd goes with higher affinity. As a reminder, the koff is the first-order rate constant of dissociation. A high value points to fast dissociation. Usually kon stands for the second-order rate constant of association. Higher therefore signals faster complex formation.

Residue numbers refer to the chain shown, from its start.

B1: PMAB21 (bispecific antibody, human IgG1, kappa)
heavy: EVQLLESGGGLVQPGGSLRLSCAASGFTFSNSDMSWVRQAPGKGLEWVSGITISGGSTYYADSVKGRFTISRDNSKNTLYLQMNSLRAEDTAVYYCARGRGGSGWLDYWGQGTLVTVSSASTKGPSVFPLAPSSKSTSGGTAALGCLVKDYFPEPVTVSWNSGALTSGVHTFPAVLQSSGLYSLSSVVTVPSSSLGTQTYICNVNHKPSNTKVDKKVEPKSCDKTHTCPPCPAPEAAGAPSVFLFPPKPKDTLMISRTPEVTCVVVDVSHEDPEVKFNWYVDGVEVHNAKTKPREEQYNSTYRVVSVLTVLHQDWLNGKEYKCKVSNKALPAPIEKTISKAKGQPREPQVYTLPPSREEMTKNQVSLTCLVKGFYPSDIAVEWESNGQPENNYKTTPPVLDSDGSFFLYSKLTVDKSRWQQGNVFSCSVMHEALHNHYTQKSLSLSPGGGGGSGGGGSGGGGSEVQLLESGGGLVQPGGSLRLSCAASGFTFSDFAMHWVRQAPGKGLEWISYISGDSGYTNYADSVKGRFTISRDNSKNTLYLQMNSLRAEDTAVYYCARDRPYYYYMDVWGKGTTVTVSSGGGGSGGGGSGGGGSGGGGSDIQMTQSPSSLSASVGDRVTITCRASQSVSRSLAWYQQKPGKAPKLLIYAASSLQSGVPSRFSGSGSGTDFTLTISSLQPEDFATYYCQQYKSYPVTFGQGTKVEIK
light: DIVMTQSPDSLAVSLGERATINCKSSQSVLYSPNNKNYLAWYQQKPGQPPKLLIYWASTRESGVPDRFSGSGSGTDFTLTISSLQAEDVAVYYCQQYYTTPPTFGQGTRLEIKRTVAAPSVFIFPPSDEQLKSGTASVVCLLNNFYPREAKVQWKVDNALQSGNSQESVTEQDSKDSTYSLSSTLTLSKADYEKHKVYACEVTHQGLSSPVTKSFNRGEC
Take B1: the binding result in the test with Human MAdCAM is on record as “no binding (tested: 300 nM top concentration)”.

B2: PMAB39 (bispecific antibody, human IgG1, kappa)
heavy: B1 heavy with A496W, A636N
light: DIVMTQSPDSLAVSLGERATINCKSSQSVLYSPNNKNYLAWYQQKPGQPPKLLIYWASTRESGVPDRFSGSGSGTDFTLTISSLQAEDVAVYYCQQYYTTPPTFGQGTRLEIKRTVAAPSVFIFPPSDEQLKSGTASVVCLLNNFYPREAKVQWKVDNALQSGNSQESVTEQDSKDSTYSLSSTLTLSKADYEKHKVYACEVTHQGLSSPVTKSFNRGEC
Consider B2, for which, in the test with Human MAdCAM, the binding result is recorded as “no binding (tested: 200 nM top concentration)”.

B3: PMAB38 (bispecific antibody, human IgG1, kappa)
heavy: B1 heavy with A496W, S634Y
light: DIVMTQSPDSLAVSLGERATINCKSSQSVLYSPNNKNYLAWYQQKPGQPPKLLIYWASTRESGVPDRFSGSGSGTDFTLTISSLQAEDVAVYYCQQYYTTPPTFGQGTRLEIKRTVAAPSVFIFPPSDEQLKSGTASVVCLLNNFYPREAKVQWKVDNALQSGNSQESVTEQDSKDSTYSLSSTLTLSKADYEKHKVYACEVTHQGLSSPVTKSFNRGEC
B3: the binding result with Human MAdCAM is reported as “no binding (tested: 200 nM top concentration)”.

B4: PMAB43 (bispecific antibody, human IgG1, kappa)
heavy: B1 heavy with A496W, V698R
light: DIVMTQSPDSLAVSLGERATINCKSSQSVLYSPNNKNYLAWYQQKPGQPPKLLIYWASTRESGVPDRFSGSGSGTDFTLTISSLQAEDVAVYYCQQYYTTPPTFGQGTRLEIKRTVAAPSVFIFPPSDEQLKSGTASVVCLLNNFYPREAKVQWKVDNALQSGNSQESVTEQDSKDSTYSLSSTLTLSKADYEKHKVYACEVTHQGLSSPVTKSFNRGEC
On to B4, for which the binding result with Human MAdCAM is listed as “no binding (tested: 200 nM top concentration)”.

B5: MIAB198 (antibody, human IgG1, kappa)
heavy: EVQLLESGGGLVQPGGSLRLSCAASGFTFSDFWMHWVRQAPGKGLEWISYISGDSGYTNYADSVKGRFTISRDNSKNTLYLQMNSLRAEDTAVYYCARDRPYYYIMDVWGKGTTVTVSSASTKGPSVFPLAPSSKSTSGGTAALGCLVKDYFPEPVTVSWNSGALTSGVHTFPAVLQSSGLYSLSSVVTVPSSSLGTQTYICNVNHKPSNTKVDKKVEPKSCDKTHTCPPCPAPEAAGAPSVFLFPPKPKDTLMISRTPEVTCVVVDVSHEDPEVKFNWYVDGVEVHNAKTKPREEQYNSTYRVVSVLTVLHQDWLNGKEYKCKVSNKALPAPIEKTISKAKGQPREPQVYTLPPSREEMTKNQVSLTCLVKGFYPSDIAVEWESNGQPENNYKTTPPVLDSDGSFFLYSKLTVDKSRWQQGNVFSCSVMHEALHNHYTQKSLSLSPGGGGGSAPASSSTKKTQLQLEHLLLDLQMILNGINNYKNPKLTRMLTFKFYMPKKATELKHLQCLEEELKPLEEALNLAPSKNFHLRPRDLISDINVIVLELKGSETTFMCEYADETATIVEFINRWITFSQSIISTLT
light: DIQMTQSPSSLSASVGDRVTITCRASQSVSRSLAWYQQKPGKAPKLLIYAASSLQSGVPSRFSGSGSGTDFTLTISSLQPEDFATYYCQQYKSYPVTFGQGTKVEIKRTVAAPSVFIFPPSDEQLKSGTASVVCLLNNFYPREAKVQWKVDNALQSGNSQESVTEQDSKDSTYSLSSTLTLSKADYEKHKVYACEVTHQGLSSPVTKSFNRGEC
notes: also called MIAB198-CHO; MIAB198-HEK
Regarding B5, the binding result with Insulin was “no binding (tested: 100 nM)”.

B6: MIAB178 (antibody, human IgG1, kappa)
heavy: B5 heavy with D31S, F32Y, Y50A, D54S, Y57S, N59Y, I105Y, A456T
light: B5 light
notes: also called MIAB178-001
Consider B6, for which, in the test with Human MAdCAM, the Kd turned out to be 519 nM, the koff amounted to 0.22 s⁻¹ and the on-rate constant (kon) was determined as 372000 M⁻¹ s⁻¹.

B7: MIAB174 (antibody, human IgG1, kappa)
heavy: B5 heavy with F32Y, I105Y, A456T
light: B5 light
notes: also called MIAB174-001
As to B7, in the test with Human MAdCAM, the affinity, expressed as Kd, was 21.8 nM; the koff amounted to 0.00969 s⁻¹; the kon came out at 445000 M⁻¹ s⁻¹.

B8: MIAB141 (antibody, human IgG1, kappa)
heavy: B5 heavy with I105Y, A456T
light: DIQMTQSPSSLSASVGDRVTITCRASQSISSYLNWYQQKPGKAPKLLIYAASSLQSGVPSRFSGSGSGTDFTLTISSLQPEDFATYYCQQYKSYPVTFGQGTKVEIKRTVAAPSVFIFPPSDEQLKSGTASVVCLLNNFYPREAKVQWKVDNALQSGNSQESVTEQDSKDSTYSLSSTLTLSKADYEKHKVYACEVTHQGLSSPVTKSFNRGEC
notes: LCDR1 germlined
As to B8, the binding result was “no binding (tested: 100 nM)” with Insulin and “no binding (tested: 150 nM)” with Human MAdCAM.

B9: MIAB177 (antibody, human IgG1, kappa)
heavy: B5 heavy with I48V, Y50A, D54S, S55G, Y57S, N59Y, I105Y, A456T
light: B5 light
notes: also called MIAB177-001
Consider B9, for which, in the test with Human MAdCAM, binding was characterised by a dissociation constant (Kd) of 218 nM, the koff turned out to be 0.0851 s⁻¹ and the kon worked out at 391000 M⁻¹ s⁻¹.

B10: MIAB175 (antibody, human IgG1, kappa)
heavy: B5 heavy with D31S, F32Y, I105Y, A456T
light: B5 light
notes: also called MIAB175-001
Regarding B10, in the test with Human MAdCAM, the Kd turned out to be 22.6 nM, the off-rate (koff) is 0.0106 s⁻¹ and the kon was determined as 471000 M⁻¹ s⁻¹.

B11: MIAB149 (antibody, human IgG1, kappa)
heavy: B5 heavy with I105Y, A456T
light: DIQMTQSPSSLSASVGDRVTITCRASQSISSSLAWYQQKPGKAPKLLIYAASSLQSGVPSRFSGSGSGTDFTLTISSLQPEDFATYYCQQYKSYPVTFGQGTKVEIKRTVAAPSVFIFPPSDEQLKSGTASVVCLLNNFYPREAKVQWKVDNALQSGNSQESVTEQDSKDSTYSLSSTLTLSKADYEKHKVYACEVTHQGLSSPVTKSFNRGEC
notes: also called MIAB149-001
As for B11, in the test with Human MAdCAM, binding was characterised by a dissociation constant (Kd) of 68.8 nM, the dissociation rate constant (koff) is 0.0259 s⁻¹ and the kon came out at 376000 M⁻¹ s⁻¹.

B12: MIAB136 (antibody, human IgG1, kappa)
heavy: B5 heavy with D31S, F32Y, W33A, H35S, I105Y, A456T
light: B5 light
notes: HCDR1 germlined
Take B12: the binding result with Human MAdCAM is recorded as “no binding (tested: 150 nM)”.

B13: MIAB182 (antibody, human IgG1, kappa)
heavy: B5 heavy with D31S, F32Y, I48V, Y50A, D54S, S55G, Y57S, N59Y, I105Y, A456T
light: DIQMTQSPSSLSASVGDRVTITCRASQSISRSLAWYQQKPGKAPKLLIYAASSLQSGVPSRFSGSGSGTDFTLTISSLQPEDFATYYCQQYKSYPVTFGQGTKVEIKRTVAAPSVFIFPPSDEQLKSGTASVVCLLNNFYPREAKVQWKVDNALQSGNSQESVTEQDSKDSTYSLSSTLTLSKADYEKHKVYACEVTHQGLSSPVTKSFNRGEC
notes: also called MIAB182-001
In the case of B13, in the test with Human MAdCAM, binding was characterised by a dissociation constant (Kd) of 119 nM, the “fold reduction of affinity vs PRNT1” value turned out to be 10 fold, the koff came out at 0.0267 s⁻¹ and the kon was found to be 226000 M⁻¹ s⁻¹.

B14: MIAB147 (antibody, human IgG1, kappa)
heavy: B5 heavy with I105Y, A456T
light: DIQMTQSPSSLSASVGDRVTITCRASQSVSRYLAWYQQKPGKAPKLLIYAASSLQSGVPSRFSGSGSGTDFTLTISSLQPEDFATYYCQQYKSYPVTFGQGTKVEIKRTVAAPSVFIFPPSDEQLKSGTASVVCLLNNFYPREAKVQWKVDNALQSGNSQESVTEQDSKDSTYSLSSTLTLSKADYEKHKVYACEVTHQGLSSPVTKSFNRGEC
notes: also called MIAB147-001
For the molecule B14, the binding result with Human MAdCAM is on record as “no binding (tested: 200 nM)”.

B15: MIAB184 (antibody, human IgG1, kappa)
heavy: B5 heavy with D31S, F32Y, I48V, Y50A, D54S, S55G, Y57S, N59Y, I105Y, A456T
light: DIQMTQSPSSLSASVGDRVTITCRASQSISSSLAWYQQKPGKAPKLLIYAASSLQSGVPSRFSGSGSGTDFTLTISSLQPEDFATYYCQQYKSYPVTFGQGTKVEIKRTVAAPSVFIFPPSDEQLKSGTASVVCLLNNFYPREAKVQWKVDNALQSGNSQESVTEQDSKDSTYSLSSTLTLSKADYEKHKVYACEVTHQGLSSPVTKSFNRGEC
notes: also called MIAB184-001
Consider B15, for which, in the test with Human MAdCAM, the Kd was 563 nM, the “fold reduction of affinity vs PRNT1” value turned out to be 40 fold, the koff is 0.0818 s⁻¹ and the kon amounted to 145000 M⁻¹ s⁻¹.

B16: MIAB183 (antibody, human IgG1, kappa)
heavy: B5 heavy with D31S, F32Y, I48V, Y50A, D54S, S55G, Y57S, N59Y, I105Y, A456T
light: B5 light with R31S
notes: also called MIAB183-001
B16: in the test with Human MAdCAM, the Kd turned out to be 362 nM, the “fold reduction of affinity vs PRNT1” value was 20 fold, the koff stood at 0.0599 s⁻¹ and the kon was 166000 M⁻¹ s⁻¹.

B17: MIAB133 (antibody, human IgG1, kappa)
heavy: B5 heavy with D31S, I105Y, A456T
light: B5 light
notes: also called MIAB133-001
On to B17, for which, in the test with Human MAdCAM, the Kd came out at 20 nM, the off-rate (koff) turned out to be 0.0113 s⁻¹ and the kon was found to be 564000 M⁻¹ s⁻¹.

B18: MIAB146 (antibody, human IgG1, kappa)
heavy: B5 heavy with I105Y, A456T
light: B5 light with R31S
notes: also called MIAB146-001
With B18, in the test with Human MAdCAM, the Kd amounted to 43.8 nM, the koff amounted to 0.0197 s⁻¹ and the kon came to 449000 M⁻¹ s⁻¹.

B19: MIAB145 (antibody, human IgG1, kappa)
heavy: B5 heavy with I105Y, A456T
light: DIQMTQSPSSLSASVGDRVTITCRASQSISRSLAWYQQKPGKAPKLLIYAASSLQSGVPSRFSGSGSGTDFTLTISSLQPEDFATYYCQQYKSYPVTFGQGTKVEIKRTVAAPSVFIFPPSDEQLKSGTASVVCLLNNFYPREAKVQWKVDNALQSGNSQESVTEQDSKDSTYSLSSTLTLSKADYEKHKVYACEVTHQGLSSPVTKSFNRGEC
notes: also called MIAB145-001
As for B19, in the test with Human MAdCAM, the dissociation constant (Kd) was 22.2 nM, the koff stood at 0.00897 s⁻¹ and the kon is 405000 M⁻¹ s⁻¹.

B20: MIAB137 (antibody, human IgG1, kappa)
heavy: B5 heavy with I48V, Y50A, D54S, S55G, Y57S, N59Y, I105Y, A456T
light: B5 light
notes: HCDR2 germlined
For B20, in the test with Human MAdCAM, the affinity, expressed as Kd, was 203 nM; the off-rate (koff) turned out to be 0.082 s⁻¹; the kon worked out at 404000 M⁻¹ s⁻¹.
